Laboratory results: patent US20140087995A1 (published 2014)
Values belong to the binder of their own block, whether it stands above or below them. Numbered stars: 1 amine (or outer) side, 2 acyl side, 3 side chain; on linkers, the order of the positions; unused ones are H or OH. Bridge positions count the residues as written; N and C are the ends. Side chains are listed from the residue outwards. Ends that are not written are not given here. * marks the point of attachment. C20 diacid = O=C(O)CCCCCCCCCCCCCCCCCCC(=O)*; γGlu = O=C(O)[C@H](CCC(=O)[*:2])N[*:1]

Columns and labels:
[1] = target: T1, human amylin 3(a) receptor (human calcitonin receptor co-expressed with RAMP-3) (human, UniProt P30988 25-474; O60896 24-148, limits assumed); experiment: cell-based or functional assay
T1 sequence (looked up) 1: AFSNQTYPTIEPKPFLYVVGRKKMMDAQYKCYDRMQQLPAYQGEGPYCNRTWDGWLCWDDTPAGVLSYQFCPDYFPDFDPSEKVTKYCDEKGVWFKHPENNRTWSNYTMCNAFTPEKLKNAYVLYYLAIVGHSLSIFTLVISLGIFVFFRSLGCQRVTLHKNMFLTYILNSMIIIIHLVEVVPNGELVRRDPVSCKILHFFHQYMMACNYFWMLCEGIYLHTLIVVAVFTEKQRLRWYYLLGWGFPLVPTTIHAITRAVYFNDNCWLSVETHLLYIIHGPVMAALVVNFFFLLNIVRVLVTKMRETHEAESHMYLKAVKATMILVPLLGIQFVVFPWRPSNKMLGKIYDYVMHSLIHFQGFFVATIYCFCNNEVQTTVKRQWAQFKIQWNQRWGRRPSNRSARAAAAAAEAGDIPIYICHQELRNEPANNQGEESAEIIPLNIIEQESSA
T1 sequence (looked up) 2: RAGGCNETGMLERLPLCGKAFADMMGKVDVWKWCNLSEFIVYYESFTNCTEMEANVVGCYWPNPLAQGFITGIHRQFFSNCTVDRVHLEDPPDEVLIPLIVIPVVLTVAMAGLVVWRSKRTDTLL

[2] = target: T2, human calcitonin receptor (human, UniProt P30988 25-474); experiment: cell-based or functional assay
T2 sequence (looked up): T1 sequence (looked up) 1

hAmylin-R funct. EC50 [1]: 0.161 nM | Ratio hCT/hAmylin funct. [2]: 24.5 | hCTR funct. EC50 [2]: 3.94 nM
B1: N^ε1-[(4S)-4-carboxy-4-(19-carboxynonadecanoylamino)butanoyl]-[Arg17,Pro21,Pro27,Arg34]-h-amylin (peptide)
peptide: K([γGlu-C20 diacid])CNTATCATQRLANFLRHSSPNFGAIPSSTNVGRNTY-NH2
modifications: disulfide 2-7; N-terminus assumed
SMILES: CC[C@H](C)[C@H](NC(=O)[C@H](C)NC(=O)CNC(=O)[C@H](Cc1ccccc1)NC(=O)[C@H](CC(N)=O)NC(=O)[C@@H]1CCCN1C(=O)[C@H](CO)NC(=O)[C@H](CO)NC(=O)[C@H](Cc1c[nH]cn1)NC(=O)[C@H](CCCNC(=N)N)NC(=O)[C@H](CC(C)C)NC(=O)[C@H](Cc1ccccc1)NC(=O)[C@H](CC(N)=O)NC(=O)[C@H](C)NC(=O)[C@H](CC(C)C)NC(=O)[C@H](CCCNC(=N)N)NC(=O)[C@H](CCC(N)=O)NC(=O)[C@@H](NC(=O)[C@H](C)NC(=O)[C@@H]1CSSC[C@H](NC(=O)[C@@H](N)CCCCNC(=O)CC[C@H](NC(=O)CCCCCCCCCCCCCCCCCCC(=O)O)C(=O)O)C(=O)N[C@@H](CC(N)=O)C(=O)N[C@@H]([C@@H](C)O)C(=O)N[C@@H](C)C(=O)N[C@@H]([C@@H](C)O)C(=O)N1)[C@@H](C)O)C(=O)N1CCC[C@H]1C(=O)N[C@@H](CO)C(=O)N[C@@H](CO)C(=O)N[C@H](C(=O)N[C@@H](CC(N)=O)C(=O)N[C@H](C(=O)NCC(=O)N[C@@H](CCCNC(=N)N)C(=O)N[C@@H](CC(N)=O)C(=O)N[C@H](C(=O)N[C@@H](Cc1ccc(O)cc1)C(N)=O)[C@@H](C)O)C(C)C)[C@@H](C)O
notes: also called compound 79

hAmylin-R funct. EC50 [1]: 0.421 nM | Ratio hCT/hAmylin funct. [2]: 6.5 | hCTR funct. EC50 [2]: 2.75 nM
B2: N^ε1-[(4S)-4-carboxy-4-(19-carboxynonadecanoylamino)butanoyl]-[Glu14,Arg17,Pro21,Pro27,Arg34,Glu35]-h-amylin (peptide)
peptide: K([γGlu-C20 diacid])CNTATCATQRLAEFLRHSSPNFGAIPSSTNVGRETY-NH2
modifications: disulfide 2-7; N-terminus assumed
SMILES: CC[C@H](C)[C@H](NC(=O)[C@H](C)NC(=O)CNC(=O)[C@H](Cc1ccccc1)NC(=O)[C@H](CC(N)=O)NC(=O)[C@@H]1CCCN1C(=O)[C@H](CO)NC(=O)[C@H](CO)NC(=O)[C@H](Cc1c[nH]cn1)NC(=O)[C@H](CCCNC(=N)N)NC(=O)[C@H](CC(C)C)NC(=O)[C@H](Cc1ccccc1)NC(=O)[C@H](CCC(=O)O)NC(=O)[C@H](C)NC(=O)[C@H](CC(C)C)NC(=O)[C@H](CCCNC(=N)N)NC(=O)[C@H](CCC(N)=O)NC(=O)[C@@H](NC(=O)[C@H](C)NC(=O)[C@@H]1CSSC[C@H](NC(=O)[C@@H](N)CCCCNC(=O)CC[C@H](NC(=O)CCCCCCCCCCCCCCCCCCC(=O)O)C(=O)O)C(=O)N[C@@H](CC(N)=O)C(=O)N[C@@H]([C@@H](C)O)C(=O)N[C@@H](C)C(=O)N[C@@H]([C@@H](C)O)C(=O)N1)[C@@H](C)O)C(=O)N1CCC[C@H]1C(=O)N[C@@H](CO)C(=O)N[C@@H](CO)C(=O)N[C@H](C(=O)N[C@@H](CC(N)=O)C(=O)N[C@H](C(=O)NCC(=O)N[C@@H](CCCNC(=N)N)C(=O)N[C@@H](CCC(=O)O)C(=O)N[C@H](C(=O)N[C@@H](Cc1ccc(O)cc1)C(N)=O)[C@@H](C)O)C(C)C)[C@@H](C)O
